Tests used:
[1] = biological target: T1, CD27蛋白 (SEQ ID NO:27), expressed on transduced cells (Homo sapiens (Human), UniProt P26842 20-260); test: flow cytometry on CHO-K1-CD27 cells, Alexa-647 anti-human Fc secondary
T1 construct: The entry includes the signal peptide; also called CHO-K1-CD27细胞; Jurkat-NFAT-lucia-CD27细胞
T1 sequence: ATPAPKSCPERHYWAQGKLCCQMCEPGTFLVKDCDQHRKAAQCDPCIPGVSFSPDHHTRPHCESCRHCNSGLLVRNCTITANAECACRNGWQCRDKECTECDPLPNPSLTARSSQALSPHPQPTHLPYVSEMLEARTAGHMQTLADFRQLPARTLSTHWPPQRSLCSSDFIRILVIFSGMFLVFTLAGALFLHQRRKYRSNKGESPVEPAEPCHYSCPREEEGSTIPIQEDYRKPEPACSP

[2] = biological target: T2, CD33 on human acute myeloid leukaemia HL-60 tumour cells (human, UniProt P20138 18-364); test: flow cytometry on HL-60 cells, Alexa-647 anti-human Fc secondary
T2 construct: whole, on cells; also called 人急性髓系细胞白血病HL-60肿瘤细胞; HL-60细胞
T2 sequence (P20138 18-364): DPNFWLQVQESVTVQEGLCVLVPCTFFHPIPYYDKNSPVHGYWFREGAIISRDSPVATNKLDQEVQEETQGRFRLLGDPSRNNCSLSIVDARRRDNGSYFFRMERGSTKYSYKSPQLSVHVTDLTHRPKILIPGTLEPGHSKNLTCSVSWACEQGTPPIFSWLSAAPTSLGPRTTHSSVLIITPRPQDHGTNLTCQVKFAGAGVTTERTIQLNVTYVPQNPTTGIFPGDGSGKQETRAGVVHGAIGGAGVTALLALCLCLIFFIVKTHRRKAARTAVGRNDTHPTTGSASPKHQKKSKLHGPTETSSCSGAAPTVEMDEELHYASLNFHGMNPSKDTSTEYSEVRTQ

[3] = biological target: T3, CD33蛋白 (SEQ ID NO:29), expressed on transduced cells (Homo sapiens (Human), UniProt P20138 18-364); test: flow cytometry on CHO-K1-CD33 cells, Alexa-647 anti-human Fc secondary
T3 construct: The entry includes the signal peptide; also called CHO-K1-CD33细胞; A375-CD33细胞
T3 sequence (P20138 18-364 limits assumed): as the sequence (P20138 18-364) above

[4] = biological target: T4, CD27 on human peripheral blood CD8+ T cells (human, UniProt P26842 20-260); test: flow cytometry on human PBMC gated on CD8+ T cells, Alexa-647 anti-human Fc secondary
T4 construct: whole, on cells; also called 人外周血T细胞; 人外周血CD8+ T细胞
T4 sequence (looked up): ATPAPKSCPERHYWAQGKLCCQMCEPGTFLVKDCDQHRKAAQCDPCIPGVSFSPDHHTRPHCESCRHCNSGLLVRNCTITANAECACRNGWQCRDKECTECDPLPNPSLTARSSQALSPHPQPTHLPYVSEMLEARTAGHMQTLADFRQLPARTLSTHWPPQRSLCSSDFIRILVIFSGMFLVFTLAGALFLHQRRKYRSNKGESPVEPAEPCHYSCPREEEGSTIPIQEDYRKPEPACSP

Measured: binding result

B1: CD27×CD33双特异抗体 (bispecific antibody, human IgG1, kappa, L234A L235A)
chain: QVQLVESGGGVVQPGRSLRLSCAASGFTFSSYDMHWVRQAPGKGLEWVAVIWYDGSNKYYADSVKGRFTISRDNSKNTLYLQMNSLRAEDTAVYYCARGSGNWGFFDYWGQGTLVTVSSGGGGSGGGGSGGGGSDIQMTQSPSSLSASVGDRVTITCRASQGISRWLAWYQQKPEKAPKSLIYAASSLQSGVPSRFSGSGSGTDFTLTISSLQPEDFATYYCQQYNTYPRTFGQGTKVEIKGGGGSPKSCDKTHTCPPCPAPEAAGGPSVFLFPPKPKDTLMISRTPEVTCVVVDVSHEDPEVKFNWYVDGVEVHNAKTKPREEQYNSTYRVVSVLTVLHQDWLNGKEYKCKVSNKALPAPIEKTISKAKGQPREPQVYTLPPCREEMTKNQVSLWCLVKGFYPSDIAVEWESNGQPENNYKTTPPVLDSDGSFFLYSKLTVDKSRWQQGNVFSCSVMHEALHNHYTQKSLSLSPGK
heavy: EVQLVQSGAEVKKPGSSVKVSCKASGYTITDSNIHWVRQAPGQSLEWIGYIYPYNGGTDYNQKFKNRATLTVDNPTNTAYMELSSLRSEDTAFYYCVNGNPWLAYWGQGTLVTVSSASTKGPSVFPLAPSSKSTSGGTAALGCLVKDYFPEPVTVSWNSGALTSGVHTFPAVLQSSGLYSLSSVVTVPSSSLGTQTYICNVNHKPSNTKVDKKVEPKSCDKTHTCPPCPAPEAAGGPSVFLFPPKPKDTLMISRTPEVTCVVVDVSHEDPEVKFNWYVDGVEVHNAKTKPREEQYNSTYRVVSVLTVLHQDWLNGKEYKCKVSNKALPAPIEKTISKAKGQPREPQVCTLPPSREEMTKNQVSLSCAVKGFYPSDIAVEWESNGQPENNYKTTPPVLDSDGSFFLVSKLTVDKSRWQQGNVFSCSVMHEALHNHYTQKSLSLSPGK
light: DIQLTQSPSTLSASVGDRVTITCRASESLDNYGIRFLTWFQQKPGKAPKLLMYAASNQGSGVPSRFSGSGSGTEFTLTISSLQPDDFATYYCQQTKEVPWSFGQGTKVEVKRTVAAPSVFIFPPSDEQLKSGTASVVCLLNNFYPREAKVQWKVDNALQSGNSQESVTEQDSKDSTYSLSSTLTLSKADYEKHKVYACEVTHQGLSSPVTKSFNRGEC
notes: Three-chain knob-into-hole heterodimer (scFv-Fc knob arm against CD27, Fab-Fc hole arm against CD33), human IgG1 L234A/L235A constant regions; made in ExpiCHO cells, purified on Protein A; also called 抗体CD27×CD33; 双特异抗体CD27×CD33
binds: all assays above

From patent CN115368448A (HEFEI TIANGANG IMMUNOLOGY PHARMACEUTICAL CO LTD, dated 2022)
